# Measurements published in the supplement of paper PMC9112550, “Optimization of the antimicrobial peptide Bac7 by deep mutational scanning” (BMC Biology, 2022).
# System: Escherichia coli TOP10
# Assay: shrunken log2 fold change of peptide-encoding DNA abundance (4.5 h post-induction vs induction); higher = less antimicrobial activity (less host growth inhibition)
# Settings: time post-induction: 4.5 h; library: site-saturation at positions 5, 18, 19, 20
# 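Also: peptides expressed intracellularly from a pBAD plasmid library in pooled LB shake-flask culture, induced with 0.3% L-arabinose, DNA abundance read by NGS, three biological replicates, DESeq2 with apeglm shrinkage.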
row,Sequence,shrunken log2 fold change
1,RRIRGRPPRLPRPRPRPLWDPRP,0.537
2,RRIRSRPPRLPRPRPRPYICPRP,-0.959
3,RRIRERPPRLPRPRPRPTQLPRP,0.251
4,RRIRRRPPRLPRPRPRPAGLPRP,0.153
5,RRIRPRPPRLPRPRPRPHPSPRP,0.000134
6,RRIRRRPPRLPRPRPRPIGAPRP,0.435
7,RRIRQRPPRLPRPRPRPIVKPRP,-0.108
8,RRIRGRPPRLPRPRPRPFYIPRP,0.0551
9,RRIRFRPPRLPRPRPRPMDIPRP,-0.0635
10,RRIRGRPPRLPRPRPRPKVKPRP,0.547
11,RRIRKRPPRLPRPRPRPHTLPRP,-0.168
12,RRIRFRPPRLPRPRPRPPIFPRP,-0.0711
13,RRIRWRPPRLPRPRPRPIYVPRP,-0.0477
14,RRIRWRPPRLPRPRPRPHCMPRP,0.0179
15,RRIRYRPPRLPRPRPRPQIYPRP,-0.132
16,RRIRLRPPRLPRPRPRPSRSPRP,-0.0638
17,RRIRMRPPRLPRPRPRPMREPRP,0.279
18,RRIRFRPPRLPRPRPRPAWSPRP,0.116
19,RRIRRRPPRLPRPRPRPQMEPRP,0.0751
20,RRIRWRPPRLPRPRPRPQICPRP,-0.0447
21,RRIRERPPRLPRPRPRPGDFPRP,-0.107
22,RRIRRRPPRLPRPRPRPNDAPRP,-0.0546
23,RRIRDRPPRLPRPRPRPHSQPRP,-0.0254
24,RRIRERPPRLPRPRPRPKRGPRP,0.385
25,RRIRERPPRLPRPRPRPPGPPRP,0.478

row,Sequence,shrunken log2 fold change
1,RRIRERPPRLPRPRPRPPGYPRP,-0.175
2,RRIRKRPPRLPRPRPRPSWCPRP,-0.152
3,RRIRKRPPRLPRPRPRPHFYPRP,-0.0034
4,RRIRYRPPRLPRPRPRPFVIPRP,-0.31
5,RRIRERPPRLPRPRPRPKMYPRP,-0.898
6,RRIRRRPPRLPRPRPRPCWSPRP,-0.0452
7,RRIRRRPPRLPRPRPRPNQIPRP,-0.349
8,RRIRKRPPRLPRPRPRPIAGPRP,-0.0506
9,RRIRVRPPRLPRPRPRPMVLPRP,-0.19
10,RRIRDRPPRLPRPRPRPASYPRP,-0.0767
11,RRIRCRPPRLPRPRPRPVVGPRP,-0.0604
12,RRIRWRPPRLPRPRPRPKSCPRP,0.178
13,RRIRQRPPRLPRPRPRPESFPRP,0.0552
14,RRIRHRPPRLPRPRPRPGEEPRP,0.03
15,RRIRERPPRLPRPRPRPRPPPRP,0.69
16,RRIRGRPPRLPRPRPRPAMEPRP,1
17,RRIRYRPPRLPRPRPRPICMPRP,-0.018
18,RRIRLRPPRLPRPRPRPDLYPRP,-0.0419
19,RRIRFRPPRLPRPRPRPHRQPRP,-0.228
20,RRIRKRPPRLPRPRPRPMMLPRP,-0.0136
21,RRIRKRPPRLPRPRPRPYPKPRP,0.109
22,RRIRVRPPRLPRPRPRPFFPPRP,-0.0751
23,RRIRDRPPRLPRPRPRPTMFPRP,0.0915
24,RRIRYRPPRLPRPRPRPNDNPRP,-0.635
25,RRIRLRPPRLPRPRPRPFHCPRP,-0.0953

row,Sequence,shrunken log2 fold change
1,RRIRMRPPRLPRPRPRPCMHPRP,0.14
2,RRIRDRPPRLPRPRPRPACRPRP,0.219
3,RRIRRRPPRLPRPRPRPNICPRP,0.0828
4,RRIRKRPPRLPRPRPRPCEAPRP,0.277
5,RRIRNRPPRLPRPRPRPKHWPRP,0.0916
6,RRIRWRPPRLPRPRPRPCAIPRP,0.027
7,RRIRWRPPRLPRPRPRPQGGPRP,-0.0626
8,RRIRERPPRLPRPRPRPGVQPRP,-0.351
9,RRIRMRPPRLPRPRPRPTWVPRP,0.496
10,RRIRRRPPRLPRPRPRPGFVPRP,0.423
11,RRIRDRPPRLPRPRPRPAIFPRP,0.617
12,RRIRGRPPRLPRPRPRPEPPPRP,1.79
13,RRIRARPPRLPRPRPRPLIDPRP,0.647
14,RRIRFRPPRLPRPRPRPGNKPRP,-0.344
15,RRIRHRPPRLPRPRPRPTVAPRP,0.325
16,RRIRTRPPRLPRPRPRPSWAPRP,0.195
17,RRIRYRPPRLPRPRPRPCPPPRP,-0.839
18,RRIRCRPPRLPRPRPRPDTTPRP,0.00602
19,RRIRFRPPRLPRPRPRPYAWPRP,-0.134
20,RRIRHRPPRLPRPRPRPAWPPRP,0.613
21,RRIRFRPPRLPRPRPRPFTQPRP,0.0192
22,RRIRERPPRLPRPRPRPWKTPRP,0.0324
23,RRIRCRPPRLPRPRPRPWKIPRP,-0.268
24,RRIRARPPRLPRPRPRPWGLPRP,0.617
25,RRIRQRPPRLPRPRPRPFRPPRP,-0.303
